In patent US20160209425A1, “USE OF DECTIN-1 ACTIVATORS FOR TREATMENT OF LIVER DISORDERS” (NEW YORK UNIVERSITY, priority 2015, published 2016):
“Also recorded” adds a separate entry of the source.

Columns and labels:
HSC = assay: LPS-stimulated hepatic stellate cells in vitro; assay type: cell-based, mouse; settings: LPS-stimulated Dectin-1−/− HSC, 24 h; FIG. 14D
Protocol: Murine hepatic NPC were collected as previously (Connolly et al., 2009, The Journal of clinical investigation 119, 3213-3225). Briefly, the portal vein was cannulated and infused with 1% Collagenase IV (Sigma). The liver was then removed, minced, and filtered to obtain single cell suspensions. Hepatocytes were excluded with serial low speed (400 RPM) centrifugation followed by high speed (2000 RPM) centrifugation to isolate the NPC, which were then further enriched over a 40% Optiprep (Sigma) gradient. […] In vitro proliferation was measured using the XTT cell proliferation kit (Roche). PKC activity was measured using a PKC Kinase Activity Assay Kit (Abcam). […]
For Western blotting, total protein was isolated from 75 mg liver tissue by homogenization in RIPA buffer with Complete Protease Inhibitor cocktail (Roche). […] The presence of the co-immunoprecipitated proteins were determined by western blotting.

macrophages = assay: Macrophages treated in vitro (M-CSF, M-CSF blockade, TNF-a blockade), CD14 and cytokine expression; assay type: cell-based, mouse
Protocol: Murine hepatic NPC were collected as previously (Connolly et al., 2009, The Journal of clinical investigation 119, 3213-3225). Briefly, the portal vein was cannulated and infused with 1% Collagenase IV (Sigma). The liver was then removed, minced, and filtered to obtain single cell suspensions. Hepatocytes were excluded with serial low speed (400 RPM) centrifugation followed by high speed (2000 RPM) centrifugation to isolate the NPC, which were then further enriched over a 40% Optiprep (Sigma) gradient. Human liver NPCs were isolated using a similar protocol as we have described ((Ibrahim et al., 2012, Gastroenterology 143, 1061-1072). Human PBMC were isolated by overlaying whole blood diluted 1:1 in PBS over an equal amount of Ficoll. The cells were then spun at 2100 RPM for 21 min at 20° C. and buffy coat harvested to obtain the PBMC as described ((Rehman et al., 2013, Journal of immunology 190, 4640-4649). Single-cell suspensions of murine splenocytes were isolated by manual disruption of whole spleen and RBC lysis. For HSC isolation, the liver was perfused with 1% Collagenase IV and HSCs were enriched over a 2-layer Nicodenz (Sigma) gradient. HSC were used for experiments on day 14 of culture. […] In vitro proliferation was measured using the XTT cell proliferation kit (Roche). PKC activity was measured using a PKC Kinase Activity Assay Kit (Abcam). […]

LPS-induced endotoxemia = LPS-induced endotoxemia / sepsis in mice; assay type: in vivo, mouse; settings: WT mice co-administered LPS and M-CSF; FIGS. 7G, 7H
Protocol: C57BL/6 and CD45.1 mice were purchased from Jackson and bred in house. Dectin-1^−/− mice were a gift from Gordon Brown (University of Aberdeen). Mincle^−/− mice were obtained from the MMRRC. Age-matched 6-8 week old mice were used in all experiments. To induce hepatic fibrosis, female mice were treated with thrice weekly injections of TAA (250 mg/kg; Sigma) for 12 weeks as described (Connolly et al., 2009, The Journal of clinical investigation 119, 3213-3225). Alternatively, mice received bi-weekly injections of CCl4 (0.5 ml/kg; Sigma) for the same duration. To induce HCC, male mice were injected i.p. at 2 weeks of age with a single dose of DEN (15 mg/kg, Sigma) followed by bi-weekly injections of CCl4 (0.2 ml/kg) starting at 8 weeks of age ((Dapito et al., 2012, Cancer cell 21, 504-516). Mice were sacrificed 24 weeks later. To induce sepsis, male mice were injected i.p. with a single dose of LPS (15 mg/kg; Sigma). Rectal core body temperature was determined using a MicroTherma 2 temperature probe (Thermoworks). In selected experiments, MyD88 inhibitory peptide (1 mg/kg; Novus), an α-M-CSF neutralizing antibody (2 mg/kg; Clone 5A1, BioXCell), or an α-CD14 neutralizing antibody (4 mg/kg; Clone 4C1, BD Bioscience) was administered immediately preceding each TAA or LPS administration. At the time of sacrifice, blood and liver samples were harvested for analysis. […]

liver regeneration = assay: 70% partial hepatectomy, liver regeneration; assay type: in vivo, mouse; settings: TCRδ−/− mice, 36 h, FIG. 29C
Description: C57BL/6, TCRδ^−/−, and C57BL/6-Trdc^tm1Mal mice were purchased from Jackson (Bar Harbor, Me.). For selected experiments, CD45.1 mice and C57BL/6 controls were purchased from Taconic (Germantown, N.Y.). Dectin-1^−/− mice were a gift from Gordon Brown (University of Aberdeen). Bone marrow chimeric animals were created by irradiating mice (9 Gy) followed by i.v. bone marrow transfer (10^7 cells) as described by us (Ochi et al., The Journal of clinical investigation 2012; 122:4118-29). The 70% partial hepatectomy procedure entailed ligation and removal of the left and median lobes of the liver in 8-12 week-old mice (Mitchell et al., Nat Protoc 2008; 3:1167-70). The sham operation consisted of a midline laparotomy alone. All animal procedures were approved by NYU School of Medicine IACUC.
In selected experiments, NK1.1^+ cells were depleted using an mAb (PK136, 150 μg, eBiosciences, San Diego, Calif.). […]
Liver tissues were fixed in formaldehyde, embedded in paraffin, and stained for B220 (RA3-6B2; BD), BrdU (Bu20a; Sigma), CCL20 (polyclonal, Abcam), CD45 (30-F11; BD), CD68 (KP1; Abcam), Ki67 (16A8; Biolegend), MPO (Rabbit polyclonal; LS Biosciences, Seattle, Wash.), PCNA (PC10; Biolegend). […] Data was quantified by examining 10 high-power fields (HPFs) per slide. […]

CN(C)CCCn1cc(C2=C(c3c[nH]c4ccccc34)C(=O)NC2=O)c2ccccc21 [PKC inhibition, GF109203X]
M-CSF expression in cell culture supernatant (HSC): abrogated the higher M-CSF expression

B1: recombinant M-CSF: recombinant murine M-CSF (R&D) (protein, UniProt P07141 33-552, looked up)
Macrophage colony-stimulating …: KEVSEHCSHMIGNGHLKVLQQLIDSQMETSCQIAFEFVDQEQLDDPVCYLKKAFFLVQDIIDETMRFKDNTPNANATERLQELSNNLNSCFTKDYEEQNKACVRTFHETPLQLLEKIKNFFNETKNLLEKDWNIFTKNCNNSFAKCSSRDVVTKPDCNCLYPKATPSSDPASASPHQPPAPSMAPLAGLAWDDSQRTEGSSLLPSELPLRIEDPGSAKQRPPRSTCQTLESTEQPNHGDRLTEDSQPHPSAGGPVPGVEDILESSLGTNWVLEEASGEASEGFLTQEAKFSPSTPVGGSIQAETDRPRALSASPFPKSTEDQKPVDITDRPLTEVNPMRPIGQTQNNTPEKTDGTSTLREDHQEPGSPHIATPNPQRVSNSATPVAQLLLPKSHSWGIVLPLGELEGKRSTRDRRSPAELEGGSASEGAARPVARFNSIPLTDTGHVEQHEGSSDPQIPESVFHLLVPGIILVLLTVGGLLFYKWKWRSHRDPQTLDSSVGRPEDSSLTQDEDRQVELPV
MCP-1 and TNF-a expression (macrophages; macrophages in vitro, cell-culture supernatant, FIG. 7F): upregulated | CD14 expression (macrophages; macrophages treated with recombinant M-CSF, FIG. 7E): increased | LPS-mediated sepsis (serum IL-6, core body temperature) (LPS-induced endotoxemia): exacerbated

B2: recombinant mIL-22: recombinant IL-22 (R&D) (protein, UniProt Q9JJY9 34-179, looked up)
Interleukin-22: LPVNTRCKLEVSNFQQPYIVNRTFMLAKEASLADNNTDVRLIGEKLFRGVSAKDQCYLMKQVLNFTLEDVLLPQSDRFQPYMQEVVPFLTKLSNQLSSCHISGDDQNIQKNVRRLKETVKKLGESGEIKAIGELDLLFMSLRNACV
rate of hepatic regeneration (BrdU incorporation) (liver regeneration): rescued | rate of hepatic regeneration (BrdU incorporation) (liver regeneration; listed as recombinant IL-22): impressively restored; also recorded: rescues
